Experiments:
[1] = molecular target: T1, HYH.2-His (HYH splice isoform 2) (Arabidopsis thaliana, UniProt Q8W191 1-149); test: EMSA; 100 ng protein; EMSA: LightShift Chemiluminescent EMSA Kit (manufacturer's instructions), 100 ng HYH.2-His, room temperature 30 min, 8% native polyacrylamide gel; buffer, salt; conditions: protein: recombinant; tags: His (pET28a+); chain copies: 2; label: 5'-biotin; blunt
T1 sequence: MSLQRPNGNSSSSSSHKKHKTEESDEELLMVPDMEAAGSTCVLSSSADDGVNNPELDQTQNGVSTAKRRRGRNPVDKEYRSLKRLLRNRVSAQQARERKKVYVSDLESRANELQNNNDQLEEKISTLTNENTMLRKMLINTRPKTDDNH

[2] = molecular target: T1, HYH.2-His (HYH splice isoform 2); test: competition; 100x, 400x, 1600x molar excess over labeled N1; gradual decrease of shift; EMSA: LightShift Chemiluminescent EMSA Kit (manufacturer's instructions), 100 ng HYH.2-His, room temperature 30 min, 8% native polyacrylamide gel; buffer, salt; conditions: protein: recombinant; tags: His (pET28a+); chain copies: 2; label: none; blunt

B1: miR169a G-box-like (G) (dsDNA)
DNA 1: TGTACGGCCACGCAAAAGTGACCTAC
DNA 2: GTAGGTCACTTTTGCGTGGCCGTACA
Question: Does B1 bind [1]?
Answer: Result: binds

B2: miR169a NC1 (dsDNA)
DNA 1: ATCTTCTGTTTAACAACATATG
DNA 2: CATATGTTGTTAAACAGAAGAT
Question: Does B2 bind [1]?
Answer: Result: no binding

B3: miR169a G-box-like, unlabeled competitor (dsDNA)
DNA 1: TGTACGGCCACGCAAAAGTGACCTAC
DNA 2: GTAGGTCACTTTTGCGTGGCCGTACA
Question: Does B3 bind [2]?
Answer: Result: binds

From article PMC5725467, “Elongated Hypocotyl 5-Homolog (HYH) Negatively Regulates Expression of the Ambient Temperature-Responsive MicroRNA Gene MIR169”
